Assay results reported in patent publication WO2002020615A2.

What was measured:
[1] = biological target: human chemokine receptor 5 (CCR5) (human) (UniProt P51681); assay: cell-based or functional assay
[2] = biological target: murine CCR5 (murine) (UniProt P51682); assay: cell-based or functional assay
Chain of UniProt P51682 (P51682 whole entry): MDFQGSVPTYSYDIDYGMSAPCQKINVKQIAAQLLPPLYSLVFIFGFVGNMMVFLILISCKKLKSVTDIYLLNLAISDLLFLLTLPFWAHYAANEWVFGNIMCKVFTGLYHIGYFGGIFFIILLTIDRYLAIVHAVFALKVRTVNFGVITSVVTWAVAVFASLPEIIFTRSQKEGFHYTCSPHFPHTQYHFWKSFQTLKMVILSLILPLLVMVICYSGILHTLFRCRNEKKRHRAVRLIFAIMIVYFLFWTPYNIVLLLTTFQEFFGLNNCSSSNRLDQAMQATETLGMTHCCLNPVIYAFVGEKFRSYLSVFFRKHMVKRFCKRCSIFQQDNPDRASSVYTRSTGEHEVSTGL

chemokine-toxin fusion protein RANTES-PE38
cytotoxicity on CCR5 positive CHO cells (48 h): concentration of complete destruction [1]: 2 nM | cytotoxicity on CHO cells expressing human CCR5 (40 h): concentration of complete killing [1]: 10 nM | cytotoxicity on CHO cells expressing murine CCR5 (40 h, light microscopy) [2]: 10 nM
